Test results taken from US20050176083A1.

Legend:
[1] = target: APC mutant QGNSEDY (ALL) (human) (UniProt P04070); experiment: cell-based or functional assay
[2] = target: wild-type human activated protein C (recombinant, thrombin-activated) (human) (UniProt P04070); experiment: cell-based or functional assay

In the case of “human protein S (from UniProt P07225 42-676)”, the APTT clotting time in protein S deficient human plasma with APC, in absence of protein S [1] is reported as 160 s, the APTT clotting time in protein S deficient human plasma with APC, protein S added [1] is reported as 350 s and the APTT clotting time in protein S deficient human plasma with APC, highest protein S concentration [2] is reported as 150 s. It also gave an APTT clotting time in protein S deficient human plasma with APC, in absence of protein S [2] of 100 s.
